Laboratory results: patent US20260263521A1 (AIMED BIO, published 2026)
Numbering of substitutions follows the chain as printed. Names may count otherwise.

T1: human CD200RLa (Sino Biological, 11620-H08H) recombinant protein (human, UniProt Q6Q8B3 24-239)
T1 construct: Bought; construct not described
T1 sequence (looked up): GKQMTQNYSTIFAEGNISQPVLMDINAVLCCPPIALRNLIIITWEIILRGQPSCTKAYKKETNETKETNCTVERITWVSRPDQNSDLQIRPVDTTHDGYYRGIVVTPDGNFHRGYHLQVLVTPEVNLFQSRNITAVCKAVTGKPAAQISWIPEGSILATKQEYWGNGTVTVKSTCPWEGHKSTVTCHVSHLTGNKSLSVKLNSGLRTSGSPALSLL

T2: mouse CD200R1 protein (R&D systems, 2554-CD) (mouse, UniProt Q9ES57 26-238, limits assumed)
T2 construct: Bought; construct not described
T2 sequence (looked up): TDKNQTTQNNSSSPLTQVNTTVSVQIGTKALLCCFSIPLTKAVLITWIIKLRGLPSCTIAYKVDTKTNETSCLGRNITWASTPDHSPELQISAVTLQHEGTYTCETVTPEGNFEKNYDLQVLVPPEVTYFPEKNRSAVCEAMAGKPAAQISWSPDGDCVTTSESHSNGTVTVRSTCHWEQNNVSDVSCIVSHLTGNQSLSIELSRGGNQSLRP

T3: monkey CD200RLa (Sino Biological, 11576-C02H) recombinant protein (monkey (cyno), UniProt A0A2K5W6R0 30-246)
T3 construct: Bought; construct not described; also called cyno CD200RLa
T3 sequence: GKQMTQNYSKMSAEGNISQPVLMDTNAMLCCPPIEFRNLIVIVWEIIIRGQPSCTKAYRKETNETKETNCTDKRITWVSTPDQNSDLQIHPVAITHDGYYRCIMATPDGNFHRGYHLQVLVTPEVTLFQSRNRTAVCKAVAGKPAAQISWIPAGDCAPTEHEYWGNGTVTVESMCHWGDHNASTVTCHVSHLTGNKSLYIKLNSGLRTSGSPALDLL

T4: human CD200R1 expressed on cells (Jurkat-CD200R1, U937-CD200R1, HH cells) (human, UniProt Q8TD46 25-348)
T4 construct: whole, on cells; also called HH (CRL-2105); cell surface-expressed CD200R1
T4 sequence (looked up): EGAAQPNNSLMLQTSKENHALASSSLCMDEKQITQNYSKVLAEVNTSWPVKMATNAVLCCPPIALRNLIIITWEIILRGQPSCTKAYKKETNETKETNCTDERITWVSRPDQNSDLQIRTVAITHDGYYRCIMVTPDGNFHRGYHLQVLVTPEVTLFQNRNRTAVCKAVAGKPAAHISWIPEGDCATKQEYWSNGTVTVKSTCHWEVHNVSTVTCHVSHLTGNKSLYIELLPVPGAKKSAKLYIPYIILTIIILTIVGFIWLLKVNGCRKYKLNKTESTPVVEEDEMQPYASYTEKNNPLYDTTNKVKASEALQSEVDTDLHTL

T5: cynomolgus CD200R1 with dual His-tags (cynomolgus, UniProt G7NZT0 25-266)
T5 construct: Captured on the SPR chip by an anti-histidine antibody; also called CCD200R1-his; cCD200R1-his; not shown: dual His-tags
T5 sequence: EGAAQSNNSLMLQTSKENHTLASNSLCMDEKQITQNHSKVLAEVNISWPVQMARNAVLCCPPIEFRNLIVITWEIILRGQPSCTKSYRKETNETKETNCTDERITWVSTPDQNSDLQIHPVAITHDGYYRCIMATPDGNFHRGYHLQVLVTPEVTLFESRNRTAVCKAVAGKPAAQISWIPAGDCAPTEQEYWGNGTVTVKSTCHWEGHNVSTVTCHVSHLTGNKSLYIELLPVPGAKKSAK

T6: human CD200R1 with dual His-tags (human, UniProt Q8TD46 25-265)
T6 construct: Captured on the SPR chip by an anti-histidine antibody; also called hCD200R1-his; not shown: dual His-tags
T6 sequence (looked up): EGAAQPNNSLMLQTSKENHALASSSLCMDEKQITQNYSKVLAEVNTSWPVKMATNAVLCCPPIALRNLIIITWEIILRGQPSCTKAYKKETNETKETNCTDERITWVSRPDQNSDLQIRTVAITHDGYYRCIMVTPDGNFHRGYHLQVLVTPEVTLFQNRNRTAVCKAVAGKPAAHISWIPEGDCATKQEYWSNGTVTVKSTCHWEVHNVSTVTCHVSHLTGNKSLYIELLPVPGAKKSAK

B1: P001011 (IgG) (antibody, V domains shown)
VH: EVQLLESGGGLVQPGGSLRLSCAASGFTFSDYYMSWVRQAPGKGLEWVSWISSGGGSTYYADSVKGRFTISRDNSKNTLYLQMNSLGAEDTAVYYCARVRGTCNGTLCYYSNAMDVWGQGTLVTVSS
VL: QSVLTQPPSASGTPGQRVTISCTGSSSNIGSNDVSWYQQLPGTAPKLLIYDDNHRPSGVPDRFSGSKSGTSASLAISGLRSEDEADYYCGTWDASLNAYVFGGGTKLTVL
B2: P001009v2 (antibody, V domains shown)
VH: EVQLLESGGGLVQPGGSLRLSCAASGFTFSSYDMSWVRQAPGKGLEWVSWISHGGGSIYYADSVKGRFTISRDNSKNTLYLQMNSLRAEDTAVYYCARDAPAYSAPLFDYWGQGTLVTVSS
VL: QSVLTQPPSASGTPGQRVTISCSGSSSNIGNNAVNWYQQLPGTAPKLLIYYDKNRPSGVPDRFSGSKSGTSASLAISGLRSEDEADYYCAAWDRSLSGYVFGGGTKLTVL
notes: P001009 with LC S52K and D93R (Kabat); also called P019001v2
B3: P001006 (IgG) (antibody, V domains shown)
VH: EVQLLESGGGLVQPGGSLRLSCAASGFTFSDYAMSWVRQAPGKGLEWVSGISYGNGNTYYADSVKGRFTISRDNSKNTLYLQMNSLRAEDTAVYYCAKDPWQTAINDFDYWGQGTLVTVSS
VL: B2 VL with S23T, A33S, Y51T, D52N, K53S, N54H, G58E, A90G, A91T, R94S
B4: P001007 (IgG) (antibody, V domains shown)
VH: EVQLLESGGGLVQPGGSLRLSCAASGFTFSNYDMSWVRQAPGKGLEWVSAISYDNGNTYYADSVKGRFTISRDNSKNTLYLQMNSLRAEDTAVYYCARNRAWFDYWGQGTLVTVSS
VL: B2 VL with A33N, N35Y, K53S, N54Q, R94A, S97N
B5: P001009v4 (antibody, V domains shown)
VH: B2 VH
VL: B2 VL with N32K, K53S, R94D
notes: P001009 with LC N31K (Kabat); also called P019001v4
B6: P001009v3 (antibody, V domains shown)
VH: B2 VH
VL: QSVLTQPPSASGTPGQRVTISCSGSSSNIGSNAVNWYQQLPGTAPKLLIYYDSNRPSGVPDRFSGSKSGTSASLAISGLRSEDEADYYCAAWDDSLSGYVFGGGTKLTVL
notes: P001009 with LC N30S (Kabat); also called P019001v3

Columns and labels:
[1] = molecular target: T1, human CD200RLa (Sino Biological, …); test: ELISA, plate-bound human CD200RLa (2 ug/mL), antibody 0.0192-300 nM, O.D 450 nm; panel 'recombinant human CD200RLa'
Protocol: (§1) 96-well plates were coated with human CD200RLa (Sino Biological, 11620-H08H) and monkey CD200RLa (Sino Biological, 11576-C02H) recombinant proteins at a concentration of 2 μg/mL at 4° C. for 16 hours, and blocked with 3% skim milk for 1 hour. […] Color was developed with a TMB substrate solution (Thermo Scientific, 34029, 1-Step™ Ultra TMB-ELISA Substrate Solution). The color reaction was stopped with stop solution (Invitrogen, SS04, ELISA Stop Solution).

[2] = molecular target: T2, mouse CD200R1 protein (R&D systems, …); test: ELISA, plate-bound mouse CD200R1 (2 ug/mL), IgG 0.0192-300 nM, OD 450 nm; panel 'mouse CD200R1'
Protocol: 96-well plates were coated with human CD200R1 (R&D systems, 3414-CD) and mouse CD200R1 protein (R&D systems, 2554-CD) at a concentration of 2 μg/mL at 4° C. for 16 hours and then were blocked with 3% skim milk.
Color was developed with a TMB substrate solution (Thermo Scientific, 34029, 1-Step™ TMB-ELISA Ultra Substrate Solution). The color reaction was stopped with stop solution (Invitrogen, SS04, ELISA Stop Solution). The absorbance was measured at an optical density of 450 nm.

[3] = molecular target: T3, monkey CD200RLa (Sino Biological, …); test: ELISA, plate-bound monkey CD200RLa (2 ug/mL), antibody 0.0192-300 nM, O.D 450 nm; panel 'recombinant cynomolgus CD200RLa/Fc'
Protocol: as §1

[4] = molecular target: T4, human CD200R1 expressed on cells …; test: flow cytometry, Jurkat-CD200R cells
Protocol: Two additional wells were treated with 10 μl of mouse IgG1K (BD, #555751) and 5 μl of commercial CD200R1 antibody (Biolegend, #329308) to determine CD200R1 expression on the cell line surface for cell quality control.
The antibodies were serially diluted 10-fold from a maximum concentration of 100 nM to 10 nM, 1 nM, […], and were added to the pre-seeded cells. After reaction for 1 hour at 4° C., the cells were treated with Alexa-647 goat anti-human IgG (H+L) cross-adsorbed secondary antibody (Invitrogen, #A21445) and incubated for an additional 30 minutes at 4° C. After washing twice with FACS buffer, flow cytometry was performed using a Novocyte Flow cytometer (Agilent). Using GraphPad Prism software, the EC₅₀ was determined using a nonlinear graph model of log (agonist) vs. response-variable slope, as shown in Table 32.

[5] = molecular target: T5, cynomolgus CD200R1 with dual His-tags; test: SPR (Biacore CM5), His-tagged antigen captured by anti-histidine antibody, antibody as analyte, 1:1 Langmuir fit
Protocol: (§2) For the experiment, 30 μg/mL of an anti-histidine antibody was conjugated to a CM5 biacore chip via an amine bond while allowing to flow at 10 μl/min (10,000 RU). Then, 0.25 μg/mL of human or cynomolgus CD200R1 with dual His-tags was captured onto the completed chip for 60 seconds, and the binding ability of each antibody was analyzed. All experiments were performed by association of antibodies for 120 seconds and dissociation of antibodies for 600 seconds. The resulting graphs were fitted using a 1:1 Langmuir binding kinetic model (FIG. 16), and the kinetics of each antibody were calculated.

[6] = molecular target: T6, human CD200R1 with dual His-tags; test: as above
Protocol: as §2

[7] = molecular target: T4, human CD200R1 expressed on cells …; test: flow cytometry on Jurkat-CD200R1 and HH cells, 500 nM antibody in IgG1 form
Protocol: The cells were washed by centrifugation at 130 g for 5 minutes. The cells were seeded onto 96-well round-bottom plates (SPL, #34296) at a density of 1×10⁵ cells/well in Flow cytometry staining buffer (Invitrogen, #00-4222-26) or FACS buffer. […] After incubation for 1 hour at 4° C., the cells were treated with Alexa-647 Goat anti-human IgG (H+L) cross-adsorbed secondary antibody (Invitrogen, #A21445) and incubated at 4° C. for an additional 30 minutes. After washing twice with FACS buffer, flow cytometry analysis was performed using a Novocyte Flow cytometer (Agilent).

| Binder | binding result [1] | binding result [2] | binding result [3] | EC50 [4] [nM] | Kd [5] [nM] | koff [5] [s⁻¹] | kon [5] [M⁻¹ s⁻¹] | Kd [6] [nM] | koff [6] [s⁻¹] | kon [6] [M⁻¹ s⁻¹] | MFI normalized to P001017 (chimeric OX108), % [7] [%] |
| --- | --- | --- | --- | --- | --- | --- | --- | --- | --- | --- | --- |
| B1 | no binding (tested: 300 nM) | no binding (tested: 300 nM) | no binding (tested: 300 nM) |  |  |  |  |  |  |  |  |
| B2 |  |  |  | 3.08 | 0.0286 | 8.08e-05 | 2.82e+06 | 0.87 | 0.00654 | 7.52e+06 |  |
| B3 | no binding (tested: 300 nM) | no binding (tested: 300 nM) |  |  |  |  |  |  |  |  | > 50 |
| B4 | no binding (tested: 300 nM) |  | no binding (tested: 300 nM) |  |  |  |  |  |  |  |  |
| B5 |  |  |  | 2.37 | 0.0822 | 0.000305 | 3.71e+06 | 1.04 | 0.007 | 6.74e+06 |  |
| B6 |  |  |  | 0.33 | 1.15 | 7.09 | 6.14e+09 | 0.109 | 0.000452 | 4.16e+06 |  |
